Results published in publication PMC4457860, “In Vitro Interaction of the Housekeeping SecA1 with the Accessory SecA2 Protein of Mycobacterium tuberculosis” (PLoS ONE, 2015).

Experiments:
[1] = target: Escherichia coli SecA labeled with Cy5 (E. coli) (UniProt P10408); experiment: MST; Monolith NT.115; unlabeled protein (1 nM to 5 μM) titrated into 25 nM Cy5-labeled protein, mixed in 300 mM KCl, then diluted into low salt buffer (25 mM HEPES-KOH pH 7.5, 30 mM KCl, 2 mM MgCl2, 50 mM arginine); Hill fit, apparent Kd; dimer to monomers
[2] = target: Mycobacterium tuberculosis SecA1 (unlabeled) (Mycobacterium tuberculosis strain H37Rv) (UniProt P9WGP5); experiment: SEC; Superdex 200 10/300 GL, 0.5 ml/min, 20 mM HEPES-KOH pH 7.5, 2 mM MgCl2, 50 mM arginine, low salt (30 mM KCl); protein 2-5 mg/ml; mass estimated with protein standards
[3] = target: the molecule itself; experiment: as above

With “Escherichia coli SecA (unlabeled) (from UniProt P10408 1-901) (natural protein)” the Kd [1] was 31 nM.

For “Mycobacterium tuberculosis SecA1 (unlabeled) (from UniProt P9WGP5 1-949) (natural protein)”, the stoichiometry N [2] was 2.

B1: Mycobacterium tuberculosis SecA2 (unlabeled) (natural protein)
chain: MVPKTTRAQPGRLSSRFWRLLGASTEKNRSRSLADVTASAEYDKEAADLSDEKLRKAAGLLNLDDLAESADIPQFLAIAREAAERRTGLRPFDVQLLGALRMLAGDVIEMATGEGKTLAGAIAAAGYALAGRHVHVVTINDYLARRDAEWMGPLLDAMGLTVGWITADSTPDERRTAYDRDVTYASVNEIGFDVLRDQLVTDVNDLVSPNPDVALIDEADSVLVDEALVPLVLAGTTHRETPRLEIIRLVAELVGDKDADEYFATDSDNRNVHLTEHGARKVEKALGGIDLYSEEHVGTTLTEVNVALHAHVLLQRDVHYIVRDDAVHLINASRGRIAQLQRWPDGLQAAVEAKEGIETTETGEVLDTITVQALINRYATVCGMTGTALAAGEQLRQFYQLGVSPIPPNKPNIREDEADRVYITTAAKNDGIVEHITEVHQRGQPVLVGTRDVAESEELHERLVRRGVPAVVLNAKNDAEEARVIAEAGKYGAVTVSTQMAGRGTDIRLGGSDEADHDRVAELGGLHVVGTGRHHTERLDNQLRGRAGRQGDPGSSVFFSSWEDDVVAANLDHNKLPMATDENGRIVSPRTGSLLDHAQRVAEGRLLDVHANTWRYNQLIAQQRAIIVERRNTLLRTVTAREELAELAPKRYEELSDKVSEERLETICRQIMLYHLDRGWADHLAYLADIRESIHLRALGRQNPLDEFHRMAVDAFASLAADAIEAAQQTFETANVLDHEPGLDLSKLARPTSTWTYMVNDNPLSDDTLSALSLPGVFR
notes: No tag; molecular mass 85 kDa on SDS-PAGE; also called PIP152
B1 was tested, and the “stoichiometry N” value [3] was 2.
